Measurements taken from patent US20160040155A1, “ACTIVATING AN ALTERNATIVE PATHWAY FOR HOMOLOGY-DIRECTED REPAIR TO STIMULATE TARGETED GENE CORRECTION AND GENOME ENGINEERING” (UNIVERSITY OF WASHINGTON THROUGH ITS CENTER FOR …, priority 2013, published 2016).
Entries after “also recorded” stand apart in the source; their conditions may differ.

What was measured:
Assay type in all cases: cell-based, human
Flp-In T-REx-293 cells = assay: Tetracycline-inducible P-Tet TL reporter HDR and mutEJ assay with or without doxycycline
Procedure: To ask if active transcription was required for the transcribed strand bias in HDR at nicks, derivatives of the TLTP and TLNT reporters were created in which a tetracycline-inducible (P-Tet) was substituted for the constitutive SFFV promoter upstream of GFP. TheseP-Tet TLTP and P-Tet TLNT reporters were stably integrated at the unique FRT site in Flp-In™ T-REx™-293 cells. Cells were cultured with (ON) or without (OFF) 1 μg/ml doxycycline, transfected with an I-AniI expression construct and the pCS14GFP plasmid dsDNA donor, and after 8-9 days of culture, doxycycline was added to the OFF cells to permit detection of HDR (GFP+) and mutEJ (mCherry+) events that had occurred in the absence of transcription. Active transcription increased the frequency of HDR at a transcribed-strand nick 2.5-fold, but reduced the frequency of HDR at a non-transcribed strand nick 4-fold (FIG. 9C). These opposing effects together accounted for the 8-fold greater frequency of HDR at a transcribed strand nick in a transcribed gene (FIG. 9B). […] Without wishing to be bound by theory, the transcription-associated strand bias of HDR at nicks may reflect unwinding ahead of the transcription apparatus that exposes the recombinogenic 3′ end of a transcribed strand nick that stimulates HDR, while occlusion of the 3′ end and exposure of the less recombinogenic 5′ end of a non-transcribed strand nick may hinder HDR (FIG. 9D). Similarly, the 2-fold reduction in mutEJ observed at DSBs, but not at nicks (FIG. 17B), may be caused by occlusion of the DSB by factors associated with the transcription apparatus.
(§1) Cell culture and transfection. […]
Flow cytometry. Cells were fixed in 2% formaldehyde and analyzed on an LSR II™ flow cytometer (Becton Dickinson, Franklin Lakes, N.J.). […]

[1] = system: 293T-TLTP and 293T-TLNT cell populations; assay: TL reporter HDR (GFP+) assay in 293T-TLTP and 293T-TLNT cell populations, I-AniI; settings: I-AniI nickase
Text: Populations of 293T cells bearing either the TLTP or TLNT reporter at heterogeneous integration sites were transiently transfected with a construct co-expressing I-AniI and the blue fluorescent protein mTagBFP (BFP), and with the dsDNA plasmid donor pCS14GFP. This donor is homologous with the TLTP and TLNT reporters over a region extending 2.47 kb upstream and 0.56 kb downstream of the I-AniI site (FIG. 15A-15C). GFP+ cells among I-AniI-expressing (BFP+) cells were quantified at 3 days post-transfection. […] Nicks initiated HDR with nearly 8-fold greater frequency in the TLTP than in the TLNT population.
To learn what determines ssDNA donor strand bias, HDR by ssDNA donors complementary to the intact (cI) or nicked (cN) strand at transcribed and non-transcribed strand nicks in the TLTP and TLNT populations was compared. The TLTP and TLNT populations carry reporters delivered by lentiviruses and integrated at heterogeneous chromosomal positions, to minimize possible effects of replication direction on this assay.
To determine whether there is a predominant directionality to unwinding or resection, a comparison was made of HDR at nicks by ssDNA donors identical in length (75 nt) and centered on the nick or extending either 3′ or 5′ of the nick. […]

HT1080-TL4TP clonal line = assay: TL reporter HDR (GFP+) flow assay, I-AniI nickase or cleavase, HT1080-TL4TP clonal line; settings: I-AniI nick, ssDNA donors
Procedure: (§2) Flow cytometry data were analyzed using FlowJo™ (Tree Star, Ashland, Oreg.) flow cytometry analysis software and frequencies were transferred to Microsoft Excel™ in which statistical significance was determined by two-tailed t-test. In all experiments I-AniI was co-expressed with mTagBFP (BFP) and GFP+ and mCherry+ frequencies among BFP+ cells are shown.
ssDNA molecules can serve as donors for HDR at DSBs (22-24). It was asked if they can also serve as donors for HDR at nicks using 99 nt ssDNA oligonucleotides in which a central 17 nt heterologous region corrects the mutations in the defective target gene (FIG. 10A). […] No donor strand bias was evident at DSBs.
Flow cytometry, HDR and mutEJ frequencies. Cells were processed for flow cytometry as described previously (13). In experiments with I-AniI, which was co-expressed with mTagBFP (BFP), data are presented as GFP+ and mCherry+ frequencies among BFP+ cells, except in cases where flow was carried out more than 8 days post-transfection, by which time the BFP signal was largely extinguished.
as §1
(§3) Flow cytometry. Cells were fixed in 2% formaldehyde and analyzed on an LSR II™ flow cytometer (Becton Dickinson, Franklin Lakes, N.J.). […] GFP, mCherry, and mTagBFP fluorescence were detected with 488 nm, 561 nm 406 nm and 641 nm lasers, respectively. […]

293T-TL7TP cells = assay: Traffic Light (TL) reporter HDR (GFP+) flow assay, I-AniI nickase or cleavase, 293T-TL7TP clonal line; settings: I-AniI nick, 99 nt ssDNA donors
Text: Damage to the transcribed DNA strand is preferentially detected and repaired in transcription-coupled nucleotide excision repair^7, and transcribedstrand nicks can arrest transcriptional elongation in human cell extracts^8. […] Chromosomal repair targets were derived from the TL reporter^9. TLTP and […] reporters carry an I-AniI site oriented for nicking the transcribed or non-transcribed strand, respectively (FIGS. 1A and 5A-5E). HDR that replaces the I-AniI site and nonsense codons yields GFP+ cells (FIGS. 1B and 5A-5E). […] GFP+ cells among I-AniI-expressing (BFP+) cells were quantified 3 days later.
as §2
Damage to the transcribed strand is preferentially detected and repaired in transcription-coupled nucleotide excision repair (16), and transcribed strand nicks can arrest transcriptional elongation in human cell extracts (17). […]

293T-TL7TP line = assay: TL reporter mutagenic end joining (mCherry+) flow assay, I-AniI, 293T-TL7TP line; settings: mCherry+ cells, nicks or DSBs
Text: Damage associated with gene targeting must be minimized for these applications. While the sequence-specificity of I-AniI limits its application to genome engineering, it is useful as a model in this context, as it cuts DNA to generate 5′-phosphate and 3′-hydroxyl ends like the FokI cleavage domain^13 of zinc finger or TALE nucleases suited for genome engineering applications. The TL reporter was used to quantify mutagenic end joining (EJ) accompanied by +2 frameshift that allows the mCherry gene to be translated (FIG. 1B). In the 293T-TL7TP line, the frequency of nick-initiated mutagenic EJ was nearly two orders of magnitude lower than that of DSB-initiated mutagenic EJ, regardless of donor (FIG. 3E). RAD51K133R expression increased the frequency of mutagenic EJ, but the frequency of nick-initiated mutagenic EJ remained lower than that of DSB-initiated mutagenic EJ (FIG. 3E). […]
Flow cytometry data were analyzed using FlowJo™ (Tree Star, Ashland, Oreg.) flow cytometry analysis software and frequencies were transferred to Microsoft Excel™ in which statistical significance was determined by two-tailed t-test. […]
as §3

[2] = ON vs OFF, 1 μg/ml doxycycline, pCS14GFP dsDNA donor

frequency of HDR at nicks by ssDNA donor (HT1080-TL4TP clonal line)	Molecule	reduction in mutEJ at DSBs (Flp-In T-REx-293 cells; ON vs OFF doxycycline, FIG. 17B, not at nicks)	increase of the frequency of HDR at a transcribed-strand nick (Flp-In T-REx-293 cells; [2])	reduction of the frequency of HDR at a non-transcribed strand nick (Flp-In T-REx-293 cells; [2])	effect on HDR at nicks in the transcribed or non-transcribed strand [1]	frequency of HDR at nicks by ssDNA donor (293T-TL7TP cells)	frequency of mutagenic EJ (293T-TL7TP line)
–	C[C@H]1c2cccc(O)c2C(=O)C2=C(O)[C@]3(O)C(=O)C(C(N)=O)=C(O)[C@@H](N(C)C)[C@@H]3[C@@H](O)[C@@H]21 [doxycycline]	2 fold	2.5 fold	4 fold	–	–	–
stimulating	RAD51K133R: dominant negative RAD51 mutant which does not hydrolyze ATP, transiently expressed from pCMV-RAD51K133R-T2A-IFP-1.4 (protein, UniProt Q06609 2-339, looked up, variant K133R, T2A-IFP1.4 coexpression) DNA repair protein RAD51 …: AMQMQLEANADTSVEEESFGPQPISRLEQCGINANDVKKLEEAGFHTVEAVAYAPKKELINIKGISEAKADKILAEAAKLVPMGFTTATEFHQRRSEIIQITTGSKELDKLLQGGIETGSITEMFGEFRTGRTQICHTLAVTCQLPIDRGGGEGKAMYIDTEGTFRPERLLAVAERYGLSGSDVLDNVAYARAFNTDHQTQLLYQASAMMVESRYALLIVDSATALYRTDYSGRGELSARQMHLARFLRMLLRLADEFGVAVVITNQVVAQVDGAAMFAADPKKPIGGNIIAHASTTRLYLRKGRGETRICKIYDSPCLPEAEAMFAINADGVGDAKD	–	–	–	Stimulation was evident; also recorded: comparable effects	stimulating	increased
